# According to patent US20030153523, “Methods for identifying RNA binding compounds” (University of Medicine and Dentistry of New Jersey, published 2003):
# T1: Tat (48-57) peptide (HIV-1)
# T1 chain: GRKKRRQRRR
# Target: T1, Tat (48-57) peptide
binder,measurement,value
GGCAGAUCUGAGCCUGGGAGCUCUCUGCC (ssRNA) [TAR RNA (wild type)],Kd,727 nM
